B1: PBXIP1 (parent)
chain: LPVETLGPASRMDPESERALQAPH
B2: CDC14A (parent)
chain: GPHPKSKIENGYPLHAPEAYFPYF

Variants of: B1
Assay: protein stability index of a GFP-peptide fusion (GPS, HEK-293T) (PSI 1-6); higher = more stable
Conditions: c terminus: a fixed tail appended
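Further: lentivirally expressed fusions sorted by FACS into six bins by GFP to DsRed ratio, PSI derived from sequencing read proportions per bin multiplied by bin number.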

Protein stability index, by site and new letter:
V3: C 4.61; A 4.73
P2: M 3.04; D 5; R 4.05; Q 4.47; K 3.95; Y 3.13; S 4.4; H 4.71; A 4.24; I 3.21; G 4.98; T 4.36; N 4.6; W 1.53; V 3.33; L 3.37; C 4.42; E 3.99; F 3.42
L1: R 4.72; V 4.65; Q 5.33; S 5.25; N 5.38; A 5.48; F 4.61; Y 5.17; M 4.43; C 3.66; W 5.13; K 5.15; H 4.89; I 4.42; T 4.64; E 4.68; D 5.07; P 5.09; G 5.38

Variants of: B2
Assay: as above
Conditions: c terminus: a fixed tail appended

Protein stability index of substitutions, site by site:
P17: Y 1.79; W 2.04
A19: L 1.98; Q 2.48; G 2.22; P 2.41; Y 2.35; I 2.38; T 2.39; R 1.78; C 1.8; K 2.51; F 2.39; W 1.87; D 2.2; V 1.89; M 2.97; S 2.35; N 2.71; H 2.22; E 2.36
Y23: C 2.77; D 3.92; F 2.23; I 2.4; A 2.93; T 3; L 1.95; V 2.07; R 2.97; W 1.91; N 3.28; Q 3.24; H 2.97; G 3.21; K 3.13; M 2.32; E 3.4; S 3.11
F24: P 3.08; Y 2.6; D 3.37; C 2.66; S 2.38; H 3.12; A 3.43; T 3.41; M 2.23; K 3.4; V 2.75; L 2.51; N 2.62; E 3.61; R 2.44; Q 2.6; I 2.92; G 3.09; W 1.89
Y20: R 2.44; C 2.19; A 2.76; W 2.19; L 3.1; G 3.25; N 2.63; D 3.29; K 2.79; H 2.71; E 2.76; I 2.57; S 2.55; F 1.89; Q 2.55; M 2.71; V 2.55; T 2.84
P22: W 2.54; D 2.73; S 1.98; G 1.8; R 2.5; C 2.9; N 1.99; T 1.64; E 2.22; A 1.61; V 2.19; M 2.76; H 1.6; K 2.67; Q 2.47; L 2.38; I 3.32
E18: R 2.69; G 2.3; M 1.45; N 2.01; L 2.03; H 2.24; T 2.01; I 1.95; A 2.61; Y 2.22; F 1.92; V 1.57; S 2.28; D 2.62; Q 2.31; W 1.56; K 2.23; C 1.65
F21: H 2.47; I 2.17; M 2.69; A 3; R 2.94; W 2.71; Q 2.85; S 2.96; D 3.55; Y 2.44; N 2.91; L 2.17; K 3.05; C 2.92; V 2.9; G 2.8
